In US20240239907A1 (EDELWEISS IMMUNE, published 2024):

B1: Beacon2-D5 (antibody, V domains shown)
VH: EVQLVESGGGLVQPKGSLKLSCAASGFTFNTYAMNWVRQAPGKGLEWVARIRSKSNNYATYYADSVKDRFTISRDDSQSMLYLQMNNLKTEDTAMYYCLSHGAFAYWGQGTLVTVSA
VL: not shown
notes: Mouse-derived; tested at the screening stage
B2: CNE-6E10 (antibody, V domains shown)
VH: EVQLVESGGGLVQPKGSLKLSCAASGFSFNTYAMNWVRQAPGKGLEWVARIRSKTNSYETYYADSVKDRFTISRDDSESMLYLQMNNLKTEDTAVYYCLSHGAFAYWGQGTLVTVSA
VL: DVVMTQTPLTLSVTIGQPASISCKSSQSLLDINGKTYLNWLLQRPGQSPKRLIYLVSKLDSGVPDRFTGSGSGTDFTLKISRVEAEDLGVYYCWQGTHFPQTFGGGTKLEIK
notes: Mouse-derived
B3: CNE-6H7-G7 (antibody, V domains shown)
VH: EVQLVESGGGLVQPKGSLKLSCAASGFSFNTYAMNWVRQAPGKGLEWVARIRSKSNNYGTYYADSVKDRFTISRDDSESMLYLKMNNLKTEDTAMYYCLSHGSSAYWGQGTLVTVSA
VL: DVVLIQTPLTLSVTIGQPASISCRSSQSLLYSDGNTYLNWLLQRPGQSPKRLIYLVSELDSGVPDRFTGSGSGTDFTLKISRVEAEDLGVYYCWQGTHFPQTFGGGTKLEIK
notes: as for B1
B4: CNF-2F8 (antibody, V domains shown)
VH: EVQLVESGGGLVQPKGSLKLSCAASGFSFQTYAMNWVRQAPGKGLEWVARIRSKRNNYATYYADSVKDRFSISRDDSENMLYLQMNNLKTEDTAMYYCLSHGAFAYWGQGTLVTVSA
VL: not shown
notes: as for B1
B5: CNGs-1C1 (antibody, V domains shown)
VH: EVQLVESGGGLVRPKGSLKLSCAASGFSFNAYAMNWVRQAPGKGLEWVARIRSKSNNYATYYADSVKDRFTISRDDSESMLYLQMNNLKTEDTAMYYCLSHGAFAYWGQGTLVTVSA
VL: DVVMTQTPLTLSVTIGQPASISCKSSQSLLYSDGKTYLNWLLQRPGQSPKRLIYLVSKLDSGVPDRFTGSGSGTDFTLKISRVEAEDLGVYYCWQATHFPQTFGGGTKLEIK
notes: as for B1
B6: CNGs-1B7-E4 (antibody, V domains shown)
VH: EVQLVESGGGLVQPRGSLKLSCAASGFTFNTYAMNWVRQAPGNGLEWVARIRSKSYNYATYHAGSVKDRFTISRDDSQNMLYLQMNNLKTEDTAMYYCMRGQTYWGQGTLVTVSA
VL: DVVLTQTPLSLPVNIGDQASISCKSTKSLLNSDGFTYLDWHLQKPGQSPQLLIYLVSNRFSGVPDRFSGSGSGTDFTLKISRVEAEDLGVYYCFQSNYLPFTFGSGTKLEMK
notes: as for B1
B7: CNGs-3H2-B7 (antibody, V domains shown)
VH: EVQLVESGGGLVQPKGSLKLSCAASGVSFKTYAMTWVRQAPGKGLEWVARIRSKRYNYATYYADSVKDRFTISRDDSESMLYLQMNNLKTEDTAMYYCMRQGAYWGQGTLVTVSA
VL: DVVLTQTPLSLPVNIGDQASISCKSTKSLLNSDGFTYLDWYLQKPGQSPHLLIYLVSNRFSGVPDRFSGSGSGTDFTLKISRVEAEDLGVYYCFQSNYLPFTFGSGTKLEIK
notes: as for B1
B8: Beacon2-A3 (antibody, V domains shown)
VH: EVQIVESGGGLVQPKGSLKLSCAASGFSFNTYAMNWVRQAPGKGLEWVARIRTKRNNYVKFYADSVKDRFTISRDDSESMLYLQMNILKTEDTAMYYCVRQGAYWGQGTLVTVSA
VL: DVVLTQTPLSLPVNIGDQASISCKSTKSLLNSDGFTYLDWYLQKPGQSPQLLIYLVSNRFSGVPDRFSGSGSGTDFTLKISRVEAEDLGVYFCFQSNYLPYTFGGGTKLEIK
notes: as for B1
B9: Beacon2-E5 (antibody, V domains shown)
VH: EVQLVESGGGLVQPKGSLKLSCAASGFSFNTYAMNWVRQAPGKGLEWVARIRTKRNNYVKFYADSVKGRFTISRDDSQSMLYLQMNNLKAEDTAIYYCVRQGAFWGQGTLVTVSA
VL: DVVLTQTPLSLPVNIGDQASISCKSTKSLLNSDGFTYLDWYLQKPGQSPQLLIYLVSNRFSGVPDRFSGSGSGTDFTLRISRVEAEDLGVYYCFQSNYLPYTFGGGTKLEIK
notes: as for B1
B10: CNE-7B1 (antibody, V domains shown)
VH: QVQLQQSGPELVKPGTSVRISCKTSGYTFTSSYVHWVKRRPGQGLEWIGWIYPGNDYTKYNEKFKGKATLTADKSSSTAYMRLSSLASEDSAVYFCTRSYYGFDYWGQGTTLTVSS
VL: DVLMTQTPLSLPVSLGDQASISCRSGQSIVRSRGNTYLEWYLQKPGQSPKLLIYKVSNRFSGVPDRFSGSGSGTDFTLKISRVEAEDLGVYYCFQGSHVPYTFGGGTKLEIK
notes: as for B1
B11: CNGs-1E1-G5 (antibody, V domains shown)
VH: QVQLQQSGPELVKPGASVRISCKASGYTFTTSYIHWVKQRPGQGLEWIGWISPGNVNTRSNEKFKGKATLTADKSSNTAYMQLSSLTSEDSAVYFCAKSYFGFDFWGQGTTLTVSS
VL: DVLMTQTPLSLPVSLGDQASISCRSSQSIVHSNGNTYLEWYVQKPGQSPKLLIYKVSNRSSGVPDRFSGSGSGTDFTLKISRVEAEDLGVYYCFQGSHVPYTFGGGTKLEIK
notes: as for B1
B12: COXs-7A7 (antibody, V domains shown)
VH: EVQLMESGGGLVKPGGSRKLSCAASGFTFSDYGMHWVRQAPEKGLEWIAYINSGSSTIHYADSVKGRFTISRDNAKNTLFLQMTSLRSEDTAMYYCVRPGFAYWGQGTLITVSA
VL: DIVMTQTPLTLSTTVGQSAFISCRSSQSLLHRNGNTYLNWFLQRPGQSPQLLVYEIFERKSGVPDRFSGSGSGTDFTLKISRVEAEDLGVYYCMQATYEPLTFGAGTKLELK
notes: as for B1
B13: COXs-7E6 (antibody, V domains shown)
VH: EVQLMESGGGLVKPGGSRKLSCAASGFTFSDHGMHWVRQAPEKGLEWIAYINSGSSTIHYADSVKGRFTISRDNAKNTLFLHMTSLRSEDTAMYYCVRPGFAYWGQGTLITVSA
VL: DIVMTQTPLTLSITVGQSAFISCRSSQSLLHRNGNTYLNWFLQRPGQSPQLLVYEIFERKSGVPDRFSGSGSGTDFTLKISRVEAEDLGVYYCMQATYEPLTFGAGTKLELK
notes: as for B1
B14: COXs-11H4 (antibody, V domains shown)
VH: EVQLVESGGGLVQPKGSLKLSCAASGFTFNTYAMNWVRQVPGKGLEWIARMRSESKNFATYYADSVKDRFTISRDDSESILYLQMNNLKTEDTGMYYCVRQGNFDVWGTGTTVTVSS
VL: DVVMTQAPLSLSVSLGDQASISCRSGQNIVHTDGNTYLYWSLQKPGQSPNLLIYKVSNRFSGVPDRFSGSGSGTDFTLKINRVEAEDMGVYYCFQLTHVPYTFGGGTKLEIK
notes: as for B1
B15: COXs-2D2 (antibody, V domains shown)
VH: EVQLVESGGGLVQPKGSLKLSCTASGFSFDTYAMNWVRQAPGKGLEWIARIRSKSKNYATYYADSVKDRFTISRDDSANILYLQMNNLKTEDTAIYYCLRQGSFDYWGQGTTLTVSS
VL: DVVLTQTPLSLPVSLGDQASISCRSGQRIVHTDGNTYLYWYLQKPGQSPKLLIYRVSNRFSGVPDRFSGSGSGTDFTLKISRVEAEDMGIYYCFQGTHFPYTFGGGTKLEIK
notes: Mouse-derived
B16: COXs-11E5 (antibody, V domains shown)
VH: EVQLVESGGGLVQPKGSLKLSCTASGFSFDTYAMNWVRQAPGKGLEWVARIRSKSKNYATYYADSVKDRFTVSRDDSANILYLQMNNLKTEDTAIYYCLRQGSFDYWGQGTTLTVSS
VL: DVVMTQTPLSLPVSLGDQASISCRSSQRIVHTDGNTYLYWYLQKPGQSPKLLIYRVSNRFSGVPDRFSGSGSGTDFILKISRVEAEDMGIYYCFQGTHFPYTFGGGTKLEIK
notes: as for B1
B17: COXs-4H5 (antibody, V domains shown)
VH: EIQLVQSGPELKKPGKTVKISCKASGYTFTTYGMSWVKQAPGKALKWMGWINTYSGVPTYADDFKGRFAFSLETSASTAYLQINNLKNEDTATYFCAIRRLSITLHGMDYWGQGTSVTVS
VL: DVVMTQSPLSLPVSLGDQASIYCRSSQRIVHSDGNTYLYWYLQRPGQSPKLLIYRVSNRFSGVPDRFSGSGSGTDFTLKISRVEAEDMGIYYCFQGTHFPYTFGGGTKLEIK
notes: as for B1
B18: COXs-9D6 (antibody, V domains shown)
VH: EVHLVESGGGLVQPKGSLKLSCTASGFSFDTYAMNWVRQAPGKGLEWVARIRSKSKNYATYYADSVTDRFTISRDDSANILYLQMNNLKTEDTAIYYCLSQGSFDYWGQGTTLTVSS
VL: DVVMTQTPLSLPVSLGDQASISCRSSQRIVHTDGNTYLYWYLQKPGQSPKLLIYRVSNRFSGVPDRFSGSGSGTDFILKISRVEAEDMGIYYCFQGTHFPYTFGGGTKLEIK
notes: as for B1
B19: COXs-12E7 (antibody, V domains shown)
VH: EVHLVESGGGLVQPKGSLKLSCKASGFSFDTYAMNWVRQAPGKGLEWVARIRSKSKSYATYYADSVKDRFTISRDDSANILYLQMNNLKTEDTAIYYCLRQGSFDYWGQGTTLTVSS
VL: DVVMTQTPLSLPVSLGDQASIYCRSSQRIVHSDGNTYLYWYLQRPGQSPKLLIYRVSNRFSGVPDRFSGSGSGTDFTLKISRVEAEDMGIYYCFQGTHFPYTFGGGTKLEIK
notes: as for B1
B20: COXs-2D4 (antibody, V domains shown)
VH: EVHLVESGGGLVQPKGSLKLSCTASGFSFDTYAMNWVRQAPGKGLEWIARIRSKSKNSATYYADSVKDRFTISRDDSANILYLQMNNLKTEDTAIYYCLRQGSFDYWGQGTTLTVSS
VL: DVVMTQTPLSLPVSLGDQASISCRSSQRIVHTDGNTYLYWYLQKPGQSPKLLIYRVSNRFSGVPDRFSGSGSGTDFTLKITRVEAEDMGIYYCFQGTHFPYTFGGGTKLEIK
notes: as for B1
B21: COXs-1B10 (antibody, V domains shown)
VH: QVTLKESGPGILKASQTLSLTCSFSGFSLSTSGMGIGWIRQPSGKGPEWLAHIWWDDEKYYRPSLKSRLTVSKDTSRNQVFLNITSVDTTDSASYYCVQRTPGRFAYWGQGTLVTVST
VL: DIVMTQSPSSLAVSIGQKVIMSCKSSQSLLSSRTQKNYLAWYQQKPGQSPKLLVYFASIRESGVPDRFTGSGSGTDFTLTISTVQAEDLAVYYCQQYFLTPYTFGGGTKLEIK
notes: Mouse antibody
B22: Beacon1-G12 (antibody, V domains shown)
VH: EIQLVQSGPELKKPGKTVKISCKASGYTFTTYGMSWVKQAPGKALKWMGWINTYSGVPTYADDFKGRFAFSLETSASTAYLQINNLKNEDTATYFCAIRRLSITLHGMDYWGQGTSVTVS
VL: DIQMTQSPASLSVSVGETVTITCRASENIYSNLAWYQQKQGKSPQLLVYGATNLADGVPSRFSGSGSGTQYSLKINSLQSEDFGSYYCQHFWGTPWTFGGGTKLEIK
notes: Mouse-derived
B23: CNGs-1B7 (antibody, V domains shown)
VH: EVKLEESGGGLVRPGGSMKLSCVASGFTFSDYWMNWVRQSPEKGLEWLAQIRLNSGNYAARYAESVKGRFTISRDDSKNSVYLQMINLRAEDTGIYFCTSNAWLANWGQGTLVTVSA
VL: DIVMTQTAPSVPVTPGESVSISCRSSKSLLHSNGNTYLYWFLQRPGQSPQRLIYSVSNLASGVPDRFSGRGSGTDFTLTISRVEAEDVGVYYCMQSLEYPYTFGGGTKLEIK
notes: Mouse-derived

target: T1, human CXCR6 (human, UniProt O00574 1-342); test: screening on cells overexpressing CXCR6, one single concentration, yes/no
T1 construct: also called hu-CXCR6; wild type human CXCR6
T1 sequence (O00574 whole entry): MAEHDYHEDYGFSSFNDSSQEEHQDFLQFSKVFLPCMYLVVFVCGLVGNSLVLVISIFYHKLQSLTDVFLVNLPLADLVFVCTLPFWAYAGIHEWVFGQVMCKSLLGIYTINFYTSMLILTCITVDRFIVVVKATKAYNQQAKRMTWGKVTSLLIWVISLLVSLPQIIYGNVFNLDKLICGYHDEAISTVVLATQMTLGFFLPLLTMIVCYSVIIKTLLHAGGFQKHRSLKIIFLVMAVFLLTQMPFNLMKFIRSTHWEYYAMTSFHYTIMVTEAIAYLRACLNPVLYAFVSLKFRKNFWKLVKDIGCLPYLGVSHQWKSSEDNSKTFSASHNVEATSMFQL

Does B1 bind?
Result: binds

Does B2 bind?
Result: binds

Does B3 bind?
Result: binds

Does B4 bind?
Result: binds

Does B5 bind?
Result: binds

Does B6 bind?
Result: binds

Does B7 bind?
Result: binds

Does B8 bind?
Result: binds

Does B9 bind?
Result: binds

Does B10 bind?
Result: binds

Does B11 bind?
Result: binds

Does B12 bind?
Result: binds

Does B13 bind?
Result: binds

Does B14 bind?
Result: binds

Does B15 bind?
Result: binds

Does B16 bind?
Result: binds

Does B17 bind?
Result: binds

Does B18 bind?
Result: binds

Does B19 bind?
Result: binds

Does B20 bind?
Result: binds

Does B21 bind?
Result: binds

Does B22 bind?
Result: binds

Does B23 bind?
Result: binds
